B1: LINE1-full (parent)
chain: UACGUAGGUGGUUUUCCCCUGAUAGUGCUAAGGGGGCCUGGAAGUUUGGACUGGGCAGAGCUCAACACAGCGUGGCAAAGUGGCUGUGGCUAGACUGCCUCUCUGGAUUCCUCGUCACUCAGCAGGGCAUCUCUGAGAGAAAUGCC

Variants of: B1
Experiment: self-cleavage, relative activity (ratio to wild type); higher = more cleavage; in vitro, sequencing; the parent is a self-cleaving ribozyme

First: U26C U46C
Second: U26C U46G
The self-cleavage of the first is higher: 1.71 for the first, 1.62 for the second.

Compared with U26C U47A, U26C U52C is lower in self-cleavage: 1.16 for the first, 0.98 for the second.

Going from U26C U62A to U26C U62G, the self-cleavage rises from 0.02 to 0.07.

First: U26C U73A
Second: U26C U73C
The self-cleavage of the first is higher: 1.48 for the first, 1.45 for the second.

Compared with U26C U85A, U26C U85C is higher in self-cleavage: 0.11 for the first, 0.27 for the second.

First: U26C U87A
Second: U26C U91C
The self-cleavage of the first is lower: 0.08 for the first, 0.73 for the second.

Compared with U26C U104A, U26C U104C is lower in self-cleavage: 1.13 for the first, 0.84 for the second.

First: U26C U109C
Second: U26C U112C
The self-cleavage of the first is higher: 1.74 for the first, 1.36 for the second.

First: U26C U119C
Second: U26C U130G
The self-cleavage of the first is higher: 1.77 for the first, 1.61 for the second.

Compared with U26C U132C, U26C U134C is lower in self-cleavage: 1.62 for the first, 0.83 for the second.

Compared with U26C U143A, U26C U143C is lower in self-cleavage: 1.44 for the first, 1.07 for the second.

Going from U26G to U26G A79G, the self-cleavage falls from 0.99 to 0.53.

Compared with U26G A117U, U26G A124G is lower in self-cleavage: 1.3 for the first, 0.69 for the second.

Compared with U26G A138G, U26G A142G is higher in self-cleavage: 1.21 for the first, 1.28 for the second.

First: U26G C38U
Second: U26G C110U
The self-cleavage of the first is lower: 0.91 for the first, 1.75 for the second.

First: U26G C111U
Second: U26G G27A
The self-cleavage of the first is lower: 0.63 for the first, 1.01 for the second.

Going from U26G G34A to U26G G55A, the self-cleavage falls from 0.93 to 0.21.

Compared with U26G G60C, U26G G125U is higher in self-cleavage: 0.07 for the first, 1.59 for the second.

First: U26G U47C
Second: U26G U85C
The self-cleavage of the first is higher: 1.16 for the first, 0.14 for the second.

First: U26G U87A
Second: U26G U87C
The self-cleavage of the first is lower: 0 for the first, 0.3 for the second.

First: U26G U91C
Second: U26G U100C
The self-cleavage of the first is lower: 0.44 for the first, 1.22 for the second.

Going from U26G U104C to U26G U119C, the self-cleavage rises from 0.81 to 0.98.

Going from U26G U130A to G27A, the self-cleavage rises from 0.79 to 1.07.

Compared with G27A A42U, G27A A59G is lower in self-cleavage: 0.99 for the first, 0.13 for the second.

Going from G27A A65G to G27A A67G, the self-cleavage rises from 0.05 to 0.45.

Going from G27A A69C to G27A A129G, the self-cleavage rises from 0.11 to 2.07.

Going from G27A A136G to G27A A138G, the self-cleavage rises from 0.93 to 1.02.

Going from G27A A140U to G27A A142G, the self-cleavage falls from 1.28 to 1.15.

First: G27A C98A
Second: G27A C111A
The self-cleavage of the first is lower: 0.14 for the first, 1.16 for the second.

Going from G27A G54A to G27A G55A, the self-cleavage falls from 0.59 to 0.21.

First: G27A G88A
Second: G27A G144A
The self-cleavage of the first is lower: 0.04 for the first, 1.08 for the second.

Going from G27A U46C to G27A U73A, the self-cleavage rises from 0.7 to 0.87.

Going from G27A U73C to G27A U85C, the self-cleavage falls from 0.93 to 0.13.

Going from G27A U87C to G27A U102C, the self-cleavage rises from 0.19 to 0.84.

First: G27A U108C
Second: G27A U112C
The self-cleavage of the first is lower: 1.15 for the first, 1.7 for the second.

First: G27A U130C
Second: G27A U132C
The self-cleavage of the first is higher: 1.34 for the first, 1.27 for the second.

Compared with G27A U134A, G27A U134C is higher in self-cleavage: 0.87 for the first, 1.58 for the second.

Going from G27A U143C to G27C, the self-cleavage falls from 1.38 to 1.11.

Compared with G27C A117G, G27C U109C is lower in self-cleavage: 0.95 for the first, 0.92 for the second.

Compared with G27C U112G, G27U is lower in self-cleavage: 1.11 for the first, 0.97 for the second.

Compared with G27U A67G, G27U C84A is lower in self-cleavage: 0.28 for the first, 0.1 for the second.

Compared with G27U U39C, G27U U134A is higher in self-cleavage: 0.63 for the first, 1.29 for the second.

First: C28A A78G
Second: C28A A79U
The self-cleavage of the first is lower: 0.61 for the first, 1.47 for the second.

First: C28A A94G
Second: C28A A117G
The self-cleavage of the first is lower: 0 for the first, 0.74 for the second.

First: C28A C116U
Second: C28A C131G
The self-cleavage of the first is higher: 1.34 for the first, 0.33 for the second.

Compared with C28A G32C, C28A G54A is lower in self-cleavage: 0.96 for the first, 0.57 for the second.

Compared with C28A G88A, C28A G126A is higher in self-cleavage: 0 for the first, 0.66 for the second.

Going from C28A U102A to C28A U115C, the self-cleavage falls from 1.12 to 1.07.

Compared with C28A U134C, C28G U45C is lower in self-cleavage: 1.92 for the first, 1.09 for the second.

Going from C28G U85A to C28G U134C, the self-cleavage rises from 0.23 to 0.82.

Compared with C28G U143A, C28U A43C is lower in self-cleavage: 1.45 for the first, 1.2 for the second.

Going from C28U A57U to C28U A64G, the self-cleavage rises from 0.11 to 0.16.

First: C28U A64U
Second: C28U A92G
The self-cleavage of the first is higher: 0.33 for the first, 0.11 for the second.

Compared with C28U A121G, C28U A138G is higher in self-cleavage: 0.66 for the first, 1.01 for the second.

First: C28U A140U
Second: C28U A141U
The self-cleavage of the first is higher: 0.95 for the first, 0.54 for the second.

First: C28U C84U
Second: C28U G89U
The self-cleavage of the first is higher: 0.25 for the first, 0.06 for the second.

Going from C28U U39C to C28U U45G, the self-cleavage rises from 0.97 to 1.09.

Compared with C28U U96A, C28U U102C is higher in self-cleavage: 0.06 for the first, 0.15 for the second.

Going from C28U U119C to C28U U130C, the self-cleavage falls from 1.12 to 0.7.

Compared with C28U U143G, U29A is higher in self-cleavage: 1.02 for the first, 1.23 for the second.

Going from U29A A64G to U29A A69G, the self-cleavage falls from 0.48 to 0.42.

Compared with U29A A69U, U29A A77U is higher in self-cleavage: 0.07 for the first, 1.79 for the second.

Compared with U29A A94G, U29A A117U is higher in self-cleavage: 0.54 for the first, 1.06 for the second.

First: U29A A121G
Second: U29A A124C
The self-cleavage of the first is lower: 1.31 for the first, 1.52 for the second.

Going from U29A A141G to U29A A142C, the self-cleavage falls from 1.15 to 0.56.

First: U29A A142G
Second: U29A C51A
The self-cleavage of the first is lower: 1.04 for the first, 1.65 for the second.

First: U29A C66U
Second: U29A C101U
The self-cleavage of the first is lower: 0.25 for the first, 1.71 for the second.

First: U29A C110U
Second: U29A G44A
The self-cleavage of the first is higher: 1.07 for the first, 0.61 for the second.

Going from U29A G48A to U29A G54A, the self-cleavage falls from 1.01 to 0.75.

First: U29A G72A
Second: U29A G89U
The self-cleavage of the first is higher: 1.13 for the first, 0.04 for the second.

Going from U29A U45C to U29A U45G, the self-cleavage falls from 0.96 to 0.38.

First: U29A U47A
Second: U29A U52C
The self-cleavage of the first is higher: 1.6 for the first, 1.3 for the second.

Compared with U29A U62C, U29A U73C is higher in self-cleavage: 0 for the first, 1.63 for the second.

Compared with U29A U81A, U29A U91C is lower in self-cleavage: 1.96 for the first, 0.4 for the second.

Compared with U29A U102C, U29A U112C is lower in self-cleavage: 1.2 for the first, 0.43 for the second.

Going from U29A U119C to U29A U119G, the self-cleavage rises from 0.97 to 1.31.

Going from U29A U130C to U29A U132A, the self-cleavage rises from 0.81 to 1.09.

Going from U29A U132C to U29A U134C, the self-cleavage rises from 0.59 to 0.87.

Compared with U29A U143A, U29A U143C is higher in self-cleavage: 0.84 for the first, 1.16 for the second.

Going from U29C to U29C A31G, the self-cleavage falls from 1.28 to 1.14.

Compared with U29C A42G, U29C A50U is lower in self-cleavage: 1.66 for the first, 1.14 for the second.

Compared with U29C A59G, U29C A59U is higher in self-cleavage: 0.16 for the first, 1.13 for the second.

First: U29C A64C
Second: U29C A64G
The self-cleavage of the first is higher: 0.61 for the first, 0.38 for the second.

With U29C A65C the self-cleavage was 0.1.

Reference: the RNAGym collection of RNA variant scans (doi:10.7554/elife.90254)
